The record followed here is paper PMC7027792, “Phenylalanine meta‐Hydroxylase: A Single Residue Mediates Mechanistic Control of Aromatic Amino Acid Hydroxylation” (Chembiochem, 2019).

In data set [1] the target is T1, Phe3H (phenylalanine 3-hydroxylase) (Streptomyces coeruleorubidus, UniProt F5BFC8).
T1 construct: gene pacX; purified Phe3H
Put plainly: steady-state inhibition kinetics of hydroxylation. The class given is biochemical. From the text:
steady-state inhibition kinetics of hydroxylation on […]

Substrate in data set [2]: N[C@@H](Cc1ccccc1)C(=O)O
Put plainly: purified protein. It counts as biochemical, Streptomyces coeruleorubidus.

Substrate in data set [3]: CC1Nc2nc(N)[nH]c(=O)c2NC1C
Put plainly: purified protein. It counts as biochemical, Streptomyces coeruleorubidus. Particulars: pterin varied, fixed L-Phe, pH 8, 28 °C, varied: cofactor.

Substrate in data set [4]: NC(Cc1ccccc1F)C(=O)O
Put plainly: purified protein. The class given is biochemical, Streptomyces coeruleorubidus. Particulars: fixed 6MPH4 cofactor, racemic substrate, pH 8, 28 °C.

Substrate in data set [5]: NC(Cc1ccc(F)cc1)C(=O)O
Put plainly: purified protein. It counts as biochemical, Streptomyces coeruleorubidus. As to conditions: fixed 6MPH4 cofactor, racemic substrate, pH 8, 28 °C.

Where [6] appears, read: fixed 6MPH4 cofactor, labelled compound, pH 8, 28 °C.
Setting [7] is: fixed 6MPH4 cofactor, pH 8, 28 °C.
The mark [8] stands for this setting: pterin cofactor (6MPH4 for wild type), labelled compound.
Where [9] appears, read: pterin cofactor (6MPH4 for wild type), optimised assay conditions.

Positions count from the first letter of the chain named. Names and notes keep the numbering of the source.

In general, Ki refers to a measure of affinity in units of concentration, obtained from inhibition or displacement. In the case of `NC(Cc1cccc(F)c1)C(=O)O` (racemic) [3F‐Phe], in data set [1], the inhibitory constant (Ki) was 800 µM.

B1: Phe3H (phenylalanine 3-hydroxylase) (Streptomyces coeruleorubidus) (protein)
chain: MQGPHAQMTDAAYEIRRSEIAALSTDLAPEDPIPVVEYTEWEHEVWRTVCVDLTARHRTDAAAEYLESAEQLAVPLDHVPQLRDVSGRLGSISGFTFQSAPALVPLREFCGGLANSVFHSTQYLRHPRSPFYTEDPDLLHDLVGHGNVLASDRFARLYRLAGNAAARVHSTEALQFIGKVFWFTLECGVVRERGERKAYGATLVSSYGELDHFRSADFRPLDIKSLADVEYDISTYQPILFEADSMDEVEDTVGSFWDTCDDDSIAALLGGTSRSVTPH
notes: purified Phe3H
As a reminder, the Km is the substrate concentration at which the rate is half of its maximum. Broadly, the kcat is the maximal rate divided by the concentration of active sites. What is called kcat/Km is the second-order rate constant that governs catalysis at low substrate concentration. For B1, the Km worked out at 540 ± 70 µM in “purified protein [2]” (setting [6]); 400 ± 60 µM in “purified protein [2]” (setting [7]); 98 ± 10 µM in the data set “purified protein [3]”; 1900 ± 100 µM in “purified protein [4]”; 230 ± 60 µM in the data set “purified protein [5]”. Moreover, the kcat is 0.567 ± 0.0167 s⁻¹ in the data set “purified protein [2]” (setting [6]); 0.633 ± 0.0333 s⁻¹ in the data set “purified protein [2]” (setting [7]); 1.3 ± 0.05 s⁻¹ in the data set “purified protein [3]”; 0.167 ± 0.00333 s⁻¹ in the data set “purified protein [4]”; 0.233 ± 0.00833 s⁻¹ in “purified protein [5]”. Further, the kcat/Km in the data set “purified protein [2]” (setting [6]) worked out at 1050 ± 48.3 M⁻¹ s⁻¹; in the data set “purified protein [2]” (setting [7]), 1580 ± 118 M⁻¹ s⁻¹; in the data set “purified protein [3]” it was 13300 ± 650 M⁻¹ s⁻¹; in “purified protein [4]”, 88.3 ± 2 M⁻¹ s⁻¹; in “purified protein [5]”, 1050 ± 107 M⁻¹ s⁻¹.

B2: Phe3H (phenylalanine 3-hydroxylase) (Streptomyces coeruleorubidus; C187A) (protein)
chain: B1 chain with C187A
notes: purified Phe3H
Regarding B2, in the data set “purified protein [2]” (setting [8]), the Km was determined as 130 ± 30 µM and the kcat came to 0.217 ± 0.00667 s⁻¹. In “purified protein [2]” (setting [9]), the Km came to 100 ± 10 µM and the kcat was 0.283 ± 0.005 s⁻¹.

B3: Phe3H (phenylalanine 3-hydroxylase) (Streptomyces coeruleorubidus; T202S) (protein)
chain: B1 chain with T202S
notes: purified Phe3H
With B3, in the data set “purified protein [2]” (setting [8]), the Km was determined as 400 ± 300 µM and the catalytic constant (kcat) is 0.217 ± 0.0667 s⁻¹. Also, in the data set “purified protein [2]” (setting [9]), the Km came to 500 ± 200 µM and the kcat turned out to be 0.433 ± 0.0833 s⁻¹.
